Laboratory results as given in US20100098709A1 (AstraZeneca / MedImmune, published 2010).
Positions count from the first letter of the chain named.

T1: FLAG HIS tagged soluble IL-6Ra (human, UniProt P08887 20-358, limits assumed)
T1 construct: the key was followed; also called HIS FLAG sIL-6R; FLAG-sIL-6R
T1 sequence: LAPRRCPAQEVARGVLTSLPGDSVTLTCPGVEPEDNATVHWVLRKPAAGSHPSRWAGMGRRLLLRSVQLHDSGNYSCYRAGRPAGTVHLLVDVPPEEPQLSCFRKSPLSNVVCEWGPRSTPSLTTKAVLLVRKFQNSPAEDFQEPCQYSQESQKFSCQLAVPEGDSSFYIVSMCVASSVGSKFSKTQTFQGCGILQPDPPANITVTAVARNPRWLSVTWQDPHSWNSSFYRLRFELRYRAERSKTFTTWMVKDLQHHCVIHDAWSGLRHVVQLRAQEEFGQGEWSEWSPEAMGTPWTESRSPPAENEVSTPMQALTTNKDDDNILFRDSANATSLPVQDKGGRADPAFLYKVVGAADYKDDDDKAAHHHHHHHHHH

B1: Antibody 1 scFv (scFv, V domains shown)
VH: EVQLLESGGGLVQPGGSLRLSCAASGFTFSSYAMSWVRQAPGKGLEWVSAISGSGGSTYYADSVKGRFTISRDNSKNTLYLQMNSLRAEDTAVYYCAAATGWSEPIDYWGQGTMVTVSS
VL: SYVLTQPPSVSVAPGQTATITCGGNNIGLKSVHWYQQKPGQAPLLVVHDDSARPSGIPERFSGSNSGNTATLTISRVEAGDEADYSCQVWDNSGGLWVFGGGTKVTVLG
notes: also called Ab 1
B2: Antibody 1 IgG (antibody, V domains shown)
VH: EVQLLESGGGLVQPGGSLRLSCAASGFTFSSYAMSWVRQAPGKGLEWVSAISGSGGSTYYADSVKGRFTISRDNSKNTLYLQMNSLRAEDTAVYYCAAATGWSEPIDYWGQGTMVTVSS
VL: B1 VL
notes: also called Ab 1
B3: Antibody 3 scFv (scFv, V domains shown)
VH: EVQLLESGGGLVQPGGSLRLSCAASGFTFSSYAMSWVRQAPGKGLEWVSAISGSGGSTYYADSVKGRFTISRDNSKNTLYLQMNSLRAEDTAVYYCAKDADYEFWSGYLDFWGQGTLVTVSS
VL: QSVLTQPPSVSGAPGQRVNISCTGSSSNIGAGYDVHWYQQLPGTAPKLLIYGNNNRPSGVPDRFSGSKSGTSASLAITGLQAEDEADYYCQSYDSSLSGYVFGTGTKVTVLG
notes: also called Ab 3
B4: Antibody 5 IgG (antibody, V domains shown)
VH: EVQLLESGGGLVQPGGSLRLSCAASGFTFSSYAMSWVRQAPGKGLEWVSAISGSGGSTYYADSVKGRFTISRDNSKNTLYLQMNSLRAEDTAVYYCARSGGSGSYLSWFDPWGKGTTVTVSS
VL: B3 VL with N19T, N54S, Y100W, T104G
notes: also called Ab 5
B5: Antibody 3 IgG (antibody, V domains shown)
VH: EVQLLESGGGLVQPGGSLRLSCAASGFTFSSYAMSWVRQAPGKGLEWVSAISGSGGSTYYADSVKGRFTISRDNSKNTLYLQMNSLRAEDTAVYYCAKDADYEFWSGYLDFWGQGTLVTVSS
VL: B3 VL
notes: also called Ab 3
B6: Antibody 2 scFv (scFv, V domains shown)
VH: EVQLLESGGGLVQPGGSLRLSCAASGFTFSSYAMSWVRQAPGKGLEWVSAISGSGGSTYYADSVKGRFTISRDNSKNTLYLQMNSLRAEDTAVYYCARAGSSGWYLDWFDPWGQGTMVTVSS
VL: QAVLTQPSSVSGAPGQRVTISCAGSSSNIGAGYDVHWYQQVPGTAPKLLIYGDTNRPSGVPDRFSGSKFGTSASLTITGLQAEDEADYYCQSYDNSLSTSDWVFGGGTKVTVLG
notes: also called Ab 2
B7: Antibody 2 IgG (antibody, V domains shown)
VH: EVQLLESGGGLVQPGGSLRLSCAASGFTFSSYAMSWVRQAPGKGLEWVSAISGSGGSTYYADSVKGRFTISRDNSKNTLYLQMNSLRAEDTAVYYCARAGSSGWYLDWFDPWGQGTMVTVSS
VL: B6 VL
notes: also called Ab 2
B8: Antibody 4 scFv (scFv, V domains shown)
VH: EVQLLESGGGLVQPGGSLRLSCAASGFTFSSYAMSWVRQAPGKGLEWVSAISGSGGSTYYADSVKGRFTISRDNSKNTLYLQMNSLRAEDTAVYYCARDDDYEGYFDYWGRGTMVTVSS
VL: QAVLTQPSSVSGAPGQRVSISCTGSSSNIGAGYEVHWYQHLPGTAPKLLIYGNNNRPSGVPDRFSGSKSGTSASLAITGLQAEDEADYYCQSYDNNLPGSRVFGGGTKVTVLG
notes: also called Ab 4
B9: Antibody 4 IgG (antibody, V domains shown)
VH: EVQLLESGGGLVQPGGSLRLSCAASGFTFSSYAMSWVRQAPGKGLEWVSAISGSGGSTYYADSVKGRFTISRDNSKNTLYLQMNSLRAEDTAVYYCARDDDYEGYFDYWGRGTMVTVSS
VL: B8 VL
notes: also called Ab 4

Columns and labels:
[1] = target: T1, FLAG HIS tagged soluble IL-6Ra; assay: phage ELISA
[2] = target: T1, FLAG HIS tagged soluble IL-6Ra; assay: phage ELISA, antigen on anti-FLAG plate
[3] = target: T2, biotinylated anti-FLAG monoclonal antibody (Sigma F9291); assay: phage ELISA, anti-FLAG treated plate alone
T2 construct: Control coat of the phage ELISA plates (streptavidin plate treated with the anti-FLAG antibody, then MPBS only); also called anti FLAG antibody treated plates alone

[4] = target: T1, FLAG HIS tagged soluble IL-6Ra; assay: ELISA and HTRF soluble binding assay, IgG
[5] = target: T1, FLAG HIS tagged soluble IL-6Ra; assay: ELISA, IgG captured by anti-human Fc, 50 nM protein
Description: (§1) Immunoassay plates were washed 3 times using PBST, then blocked by addition of 300 μl/well MPBS for 1 h at room temperature. After a second washing step 2 μg/ml of the anti-complex antibody in PBS was added to the plate at 50 μl/well. The plates were incubated for 1 h at room temperature before being washed again as previously described. FLAG-tagged reagents (IL-6, sIL-6R, Hyper Complexes) were diluted to 50 nM in MPBS. Complexes were made using 50 nM of the FLAG-tagged component and a 2-fold molar excess of the untagged component. Four-fold serial dilutions were prepared of each of the reagents, which were then added to duplicate wells of the immunoassay plates at 50 μl/well. Control wells containing 50 nM irrelevant protein (in this case his FLAG tagged murine GMCSF-R), or MPBS only were also prepared. The immunoassay plates were then incubated for 1 h at room temperature. After a further washing step, biotinylated anti-FLAG monoclonal antibody (Sigma) diluted to 1 μg/ml in MPBS was added to all wells at 50 μl/well. The plates were incubated for 1 h at room temperature before the plates were again washed as before. Europium labelled streptavidin (Perkin Elmer 1244-360) was diluted to 100 ng/ml in Delfia assay buffer (Perkin Elmer 4002-0010), added to all wells at 50 μl/well and incubated for 1 h at room temperature. The immunoassay plates were then washed 7 times in Delfia wash buffer, consisting of 0.05 M Tris buffered saline (NaCl-0.138 M, KCl-0.0027 M) Tween 20 (0.05%), pH 8.0 (at 25° C.). A 50 μl volume of Delfia enhancement solution (Perkin Elmer 4001-0010) was then added to all wells. The plates were incubated for 10 mins before the Time-resolved fluorescence was measured at 620 nm using an EnVision plate reader.

[6] = target: T1, FLAG HIS tagged soluble IL-6Ra; assay: HTRF soluble binding assay, 1 nM IgG, 20 nM HIS FLAG protein
Description: (§2) Purified IgG from positive clones identified from screening of crude periplasmic scFv and purified scFv, were tested in a HTRF® assay for binding to FLAG HIS tagged Hyper IL-6, FLAG HIS IL-6 and FLAG HIS sIL-6R.
(§3) Example data for binding of IgG of positive clones identified from screening of crude periplasmic scFv. Data shown in table 3 is expressed as % delta F at an IgG concentration of 1 nM (final assay concentration) and 20 nM of HIS FLAG protein (final assay concentration).

[7] = target: T3, HIS FLAG irrelevant ligand; assay: as above
T3 construct: Unnamed control of the HTRF soluble assay; also called irrelevant FLAG HIS ligand
Description: as §2, §3

[8] = target: T4, HIS FLAG irrelevant receptor; assay: as above
T4 construct: Unnamed control of the HTRF soluble assay; also called irrelevant FLAG HIS receptor
Description: as §2, §3

[9] = target: T5, HIS FLAG tagged human IL-6 (human, UniProt P05231 30-212); assay: ELISA and HTRF soluble binding assay, IgG
T5 construct: also called HIS FLAG IL-6; FLAG-IL-6

[10] = target: T5, HIS FLAG tagged human IL-6; assay: ELISA, IgG captured by anti-human Fc, 50 nM protein
Description: as §1

[11] = target: T6, Complex 1: HIS FLAG IL-6/sIL-6R (human, UniProt P05231 30-212; P08887 20-358, limits assumed); assay: as above
T6 construct: Non-covalent complex made by pre-incubating the two proteins; The untagged sIL-6R was bought; also called IL-6/sIL-6R complex consisting of FLAG tagged ligand and untagged receptor
Description: as §1

[12] = target: T7, Complex 2: IL-6/HIS FLAG sIL-6R (human, UniProt P05231 30-212; P08887 20-358, limits assumed); assay: as above
T7 construct: Non-covalent complex made by pre-incubating the two proteins; Untagged IL-6 was bought; also called IL-6/sIL-6R complex consisting of untagged ligand and FLAG tagged receptor
Description: as §1

[13] = target: T8, FLAG HIS tagged Hyper IL-6; assay: as above
T8 construct: also called HIS FLAG Hyper IL-6
Description: as §1

[14] = target: T5, HIS FLAG tagged human IL-6; assay: HTRF soluble binding assay, 1 nM IgG, 20 nM HIS FLAG protein
Description: as §2, §3

[15] = target: T8, FLAG HIS tagged Hyper IL-6; assay: as above
Description: as §2, §3

[16] = target: T8, FLAG HIS tagged Hyper IL-6; assay: HTRF, inhibition of Hyper IL-6 binding to biotinylated gp130 Fc; IgG
Description: Purified IgG from positive clones identified from screening of crude periplasmic scFv and purified scFv were tested in a HTRF® assay for inhibition of binding of FLAG HIS tagged Hyper IL-6 binding to biotinylated recombinant human gp130 Fc. This assay was performed as for purified scFv (Example 3) with the following modifications. 6 nM biotinylated human recombinant gp130 Fc (10 μl/well) was used to give a final concentration of 1 nM of gp130Fc.
Purified scFv were diluted 1:3 by transferring 15 μl of purified scFv to 30 μl assay buffer and mixing by pipetting in 96 well plate (Greiner 650201). Dilutions were carried out sequentially in duplicate a further 9 times. 3 nM GP130 Fc (10 μl/well) to give a final concentration of 0.5 nM, 6 nM Hyper IL-6 (10 μl/well) to give a final concentration of 1 nM and combined HTRF reagents 2.598 nM anti-flag IgG labelled with cryptate and 30 nM anti-human Fc antibody labelled with XL665 (10 μl/well) were added to 30 μl of purified scFv titration in 96 well plate. 40 μl was then transferred to a black 384 well optiplate. All dilutions were performed in assay buffer.

Binder | binding result [1] | Absorbance (450 nM) [2] | Absorbance (450 nM) [3] | binding result [4] | Europium Counts [5] [counts] | % delta F [6] [%] | % delta F [7] [%] | % delta F [8] [%] | also measured
B1 | no binding | 0.059 | 0.052 |  |  |  |  |  | 
B2 |  |  |  | no binding | 1340 | 4 | 8 | 11 | 
B3 | no binding | 0.056 | 0.049 |  |  |  |  |  | 
B4 |  |  |  | no binding | 1500 | 9 | 1 | 3 | binding result [9]: no binding; Europium Counts [10]: 1730 counts; Europium Counts [11]: 120000 counts; Europium Counts [12]: 417000 counts; Europium Counts [13]: 383000 counts; % delta F [14]: 4%; % delta F [15]: 331%; IC50 [16]: 0.7 nM
B5 |  |  |  | no binding | 1420 | 6 | 10 | 11 | 
B6 | no binding | 0.083 | 0.052 |  |  |  |  |  | 
B7 |  |  |  | no binding | 2450 | 10 | 11 | 5 | 
B8 | no binding | 0.167 | 0.053 |  |  |  |  |  | 
B9 |  |  |  | no binding | 2000 | 18 | 13 | 7 | 
